The target in assay [1] is T1, human recombinant DLL3 antigen (Homo sapiens, UniProt Q9NYJ7).
T1 sequence (Q9NYJ7 27-618): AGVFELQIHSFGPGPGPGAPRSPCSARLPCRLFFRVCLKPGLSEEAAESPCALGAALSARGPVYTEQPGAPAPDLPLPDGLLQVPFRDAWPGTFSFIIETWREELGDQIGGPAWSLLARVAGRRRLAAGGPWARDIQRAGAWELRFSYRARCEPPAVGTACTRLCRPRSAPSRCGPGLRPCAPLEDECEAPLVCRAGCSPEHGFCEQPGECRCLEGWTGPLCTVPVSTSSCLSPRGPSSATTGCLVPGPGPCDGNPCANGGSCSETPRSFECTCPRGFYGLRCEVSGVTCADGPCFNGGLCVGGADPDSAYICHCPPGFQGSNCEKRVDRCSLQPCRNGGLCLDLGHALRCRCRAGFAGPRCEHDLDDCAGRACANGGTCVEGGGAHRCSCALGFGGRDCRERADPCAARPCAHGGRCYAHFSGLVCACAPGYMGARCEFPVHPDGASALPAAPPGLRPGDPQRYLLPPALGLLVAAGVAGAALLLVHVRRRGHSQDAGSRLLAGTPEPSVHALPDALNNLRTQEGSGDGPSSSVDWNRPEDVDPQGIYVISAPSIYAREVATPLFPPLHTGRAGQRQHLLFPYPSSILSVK
Description: ELISA, binding potency to human recombinant DLL3 antigen. As to conditions: compared to unconjugated Rovalpituzumab. The method, then: The relevant antigen was immobilized on ELISA plate by absorption. The plate was washed (PBS with 0.1% Tween 20) and incubated with blocking buffer (PBS + 3% BSA) for 2 h ± 1 h to reduce unspecific binding. Relevant antibodies and ACCs diluted in assay buffer (PBS with 0.05% Tween 20 + 1.5% BSA). The blocking buffer was discarded, and the antibodies and ACCs and controls were applied in triplicates to the plate according to a plate set-up defined in each protocol. After incubation for 1 h ± 30 min at RT, the plate was washed. A horse radish peroxidase (HRP)-conjugated secondary antibody binding specifically to the primary mAb (anti-human IgG-HRP) was added to the plate. After incubation for 1 hour ± 30 min at RT, the plate was washed. A chromogenic substrate (2,2'-azino-bis (3-ethylbenzothiazoline-6-sulphonic acid) (ABTS)), for HRP leading to the formation of a green color was added to the plate and used for detection. The absorbance of the colored reaction product was measured with an absorbance plate reader, e.g. EnVision 2103 Multilabel Reader from Perkin Elmer, or iMark Microplate Absorbance Reader from Bio-Rad.
Absorbance against the log of the antibody concentration was plotted on the GraphPad Prism software.
The binding potency of Rovalpituzumab-macropa, Rovalpituzumab-DOTA was compared to unconjugated Rovalpituzumab by using an ELISA assay. […]
In general terms: ELISA stands for enzyme-linked immunosorbent assay.

For the next assay, the target named is T2, recombinant human DLL3 (Homo sapiens, UniProt Q9NYJ7).
T2 sequence (Q9NYJ7 27-618): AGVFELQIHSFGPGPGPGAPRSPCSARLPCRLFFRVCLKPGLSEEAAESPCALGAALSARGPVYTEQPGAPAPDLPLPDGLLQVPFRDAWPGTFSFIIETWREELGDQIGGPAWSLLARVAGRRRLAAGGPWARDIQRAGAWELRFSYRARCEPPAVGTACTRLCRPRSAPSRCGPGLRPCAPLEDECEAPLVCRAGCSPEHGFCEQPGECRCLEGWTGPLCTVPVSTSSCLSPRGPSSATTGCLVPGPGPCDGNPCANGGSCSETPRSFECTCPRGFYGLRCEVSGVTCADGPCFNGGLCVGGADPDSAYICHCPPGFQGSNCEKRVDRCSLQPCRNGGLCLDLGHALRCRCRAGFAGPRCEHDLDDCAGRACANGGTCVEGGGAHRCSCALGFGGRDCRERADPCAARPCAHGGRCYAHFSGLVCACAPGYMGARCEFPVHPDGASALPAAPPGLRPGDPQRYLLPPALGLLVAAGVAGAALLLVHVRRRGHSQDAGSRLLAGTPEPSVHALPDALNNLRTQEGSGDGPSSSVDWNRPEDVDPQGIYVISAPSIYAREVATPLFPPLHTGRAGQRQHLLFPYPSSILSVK
Description: Immunoreactive fraction (IRF), binding to DLL3-coated beads. As to conditions: 20 kBq/µg. As to the method:
Shortly after completion of the radiolabeling, the binding was assessed by measuring the fraction of radiolabeled antibody-chelator conjugate bound to relevant antigen coated magnetic beads (Thermo Fisher Scientific). In short, beads were placed in 2 mL Eppendorf tubes in 90 µL buffer (PBS/0.1% Tween 20/1% BSA). The radiolabeled compounds were diluted to 5 Bq/µL in buffer and 50 Bq were added to each bead-containing tube. The binding lasted for 60 min while shaking at 750 rpm at room temperature. After completion of the binding step, magnet (DynaMag-2) was used to separate the beads from […] supernatant. The radio activities in the supernatant and in the beads of each sample were measured using a high purity Germanium detector (Ortec). […] Total binding was defined as [(activity in beads […])/ (total activity)] × 100.

B1: Rovalpituzumab-DOTA (conjugate, chains of the INN, looked up)
VH: QVQLVQSGAEVKKPGASVKVSCKASGYTFTNYGMNWVRQAPGQGLEWMGWINTYTGEPTYADDFKGRVTMTTDTSTSTAYMELRSLRSDDTAVYYCARIGDSSPSDYWGQGTLVTVSS
VL: EIVMTQSPATLSVSPGERATLSCKASQSVSNDVVWYQQKPGQAPRLLIYYASNRYTGIPARFSGSGSGTEFTLTISSLQSEDFAVYYCQQDYTSPWTFGQGTKLEIK
modifications: DOTA chelator conjugate
On to B1, for which, in assay [1], the EC50 entry is on record as “increased EC50” and the max absorbance value result was “Slightly lower max absorbance value”.

B2: Ac-225-macropa-Rovalpituzumab (conjugate, chains of the INN, looked up)
VH: QVQLVQSGAEVKKPGASVKVSCKASGYTFTNYGMNWVRQAPGQGLEWMGWINTYTGEPTYADDFKGRVTMTTDTSTSTAYMELRSLRSDDTAVYYCARIGDSSPSDYWGQGTLVTVSS
VL: EIVMTQSPATLSVSPGERATLSCKASQSVSNDVVWYQQKPGQAPRLLIYYASNRYTGIPARFSGSGSGTEFTLTISSLQSEDFAVYYCQQDYTSPWTFGQGTKLEIK
modifications: macropa chelator, actinium-225
B2: in the assay with recombinant human DLL3, the “amount of DLL3-coated beads at which the maximum binding was achieved” value stood at 10 µg. Also, the “maximum binding (IRF)” value with recombinant human DLL3 (10 µg of DLL3-coated beads) came to 86%.

Source of the values: patent publication EP4552657A1, “RADIOPHARMACEUTICAL COMPLEXES AND COMBINATIONS” (priority 2023, dated 2025).
